# B1: Proline-serine-threonine phosphatase-interacting protein 1 (Homo sapiens), O43586 (parent)
# chain: MMPQLQFKDAFWCRDFTAHTGYEVLLQRLLDGRKMCKDMEELLRQRAQAEERYGKELVQIARKAGGQTEINSLRASFDSLKQQMENVGSSHIQLALTLREELRSLEEFRERQKEQRKKYEAVMDRVQKSKLSLYKKAMESKKTYEQKCRDADDAEQAFERISANGHQKQVEKSQNKARQCKDSATEAERVYRQSIAQLEKVRAEWEQEHRTTCEAFQLQEFDRLTILRNALWVHSNQLSMQCVKDDELYEEVRLTLEGCSIDADIDSFIQAKSTGTEPPAPVPYQNYYDREVTPLTSSPGIQPSCGMIKRFSGLLHGSPKTTSLAASAASTETLTPTPERNEGVYTAIAVQEIQGNPASPAQEYRALYDYTAQNPDELDLSAGDILEVILEGEDGWWTVERNGQRGFVPGSYLEKL
# partner: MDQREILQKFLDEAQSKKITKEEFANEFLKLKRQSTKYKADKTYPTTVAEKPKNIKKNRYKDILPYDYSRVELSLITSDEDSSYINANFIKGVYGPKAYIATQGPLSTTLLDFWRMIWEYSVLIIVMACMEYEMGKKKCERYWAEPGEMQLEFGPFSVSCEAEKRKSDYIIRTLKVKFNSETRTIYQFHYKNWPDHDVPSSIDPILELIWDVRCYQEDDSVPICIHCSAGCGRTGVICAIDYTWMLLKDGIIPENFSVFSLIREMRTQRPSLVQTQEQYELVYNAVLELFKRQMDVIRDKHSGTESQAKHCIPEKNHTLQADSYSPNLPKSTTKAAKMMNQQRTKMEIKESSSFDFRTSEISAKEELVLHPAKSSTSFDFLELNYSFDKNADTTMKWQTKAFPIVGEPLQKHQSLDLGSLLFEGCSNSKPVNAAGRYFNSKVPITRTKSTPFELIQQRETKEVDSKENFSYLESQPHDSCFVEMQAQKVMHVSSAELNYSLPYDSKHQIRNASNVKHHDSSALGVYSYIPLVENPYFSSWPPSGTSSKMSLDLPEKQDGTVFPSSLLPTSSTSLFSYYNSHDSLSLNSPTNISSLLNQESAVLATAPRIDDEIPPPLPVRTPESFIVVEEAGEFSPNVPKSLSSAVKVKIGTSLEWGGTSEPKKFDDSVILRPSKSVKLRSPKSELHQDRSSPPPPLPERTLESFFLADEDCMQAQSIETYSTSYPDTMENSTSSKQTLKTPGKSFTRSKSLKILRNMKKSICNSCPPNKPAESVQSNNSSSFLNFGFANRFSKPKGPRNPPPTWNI
# Variants of: B1
# Details: with ptn22_human PTPN22, Q9Y2R2
row,Variant,effect of a mutation on the interaction
1,W232A,disrupting interaction

# Variants of: B1
# Details: with ptn22_human PTPN22, Q9Y2R2
# Remark: another data set of the same source
row,Variant,effect of a mutation on the interaction
1,E250Q,disrupting interaction

# Reference: IntAct's records for PubMed 25040622
